Laboratory results from US20240116985A1, “STAPLED PEPTIDES AND METHODS THEREOF” (priority 2020, published 2024).
Starred links: 1 amine or outer side, 2 acyl side, 3 side chain; linkers in the order of their positions; H or OH if unused. Positions of bridges follow the written chain, without caps; N, C: chain ends. Non-standard residues stand in square brackets, D forms with d. Primed or numbered codes have the meaning given here. PyrS2″ = (S)-3-amino-1-((pent-4-en-1-yloxy)carbonyl)pyrrolidine-3-carboxylic acid (stapling residue), C=CCCCOC(=O)N1CC[C@@](N[*:1])(C(=O)[*:2])C1; B5(16) = 2-amino-2-(pent-4-en-1-yl)hept-6-enoic acid = 2,2-bis(4-pentenyl)glycine (stitching residue), C=CCCCC(CCCC=C)(N[*:1])C(=O)[*:2]; B5(4) = 2,2-bis(4-pentenyl)glycine = 2-amino-2-(pent-4-en-1-yl)hept-6-enoic acid (stitching residue), C=CCCCC(CCCC=C)(N[*:1])C(=O)[*:2]; TfeGA = (S)-2-amino-3-((carboxymethyl)(2,2,2-trifluoroethyl)amino)propanoic acid, O=C([C@H](CN(CC(=O)[*:3])CC(F)(F)F)N[*:1])[*:2]; PyrS2 = (S)-3-amino-1-((pent-4-en-1-yloxy)carbonyl)pyrrolidine-3-carboxylic acid, C=CCCCOC(=O)N1CC[C@@](N[*:1])(C(=O)[*:2])C1; B5(12) = 2-amino-2-(pent-4-en-1-yl)hept-6-enoic acid (two olefin side chains), C=CCCCC(CCCC=C)(N[*:1])C(=O)[*:2]; B5(3) = 2,2-bis(4-pentenyl)glycine (stitching residue), C=CCCCC(CCCC=C)(N[*:1])C(=O)[*:2]; B5 = 2-amino-2-(pent-4-en-1-yl)hept-6-enoic acid, C=CCCCC(CCCC=C)(N[*:1])C(=O)[*:2]; Phe(3-COOH) = N[C@@H](Cc1cccc(C(=O)O)c1)C(=O)O; Phe(2-Cl) = N[C@@H](Cc1ccccc1Cl)C(=O)O; 2Nal = N[C@@H](Cc1ccc2ccccc2c1)C(=O)O; Bta = N[C@@H](Cc1csc2ccccc12)C(=O)O; αAllylPro = C=CC[C@@]1(C(=O)O)CCCN1; tBuAla = CC(C)(C)C[C@H](N)C(=O)O; 3Thi = N[C@@H](Cc1ccsc1)C(=O)O; S8 = C=CCCCCCC[C@](C)(N)C(=O)O; hSer = N[C@@H](CCO)C(=O)O

B1: I-1019: Ac-PL3-Asp-Npg-B5-Asp-Asp-Ala-Ala-Phe-Ser-PyrS2-2C1F-BztA-Ser-NH2 (peptide)
peptide: Ac-[αAllylPro]D[tBuAla][B5(16)]DDAAFS[PyrS2″][Phe(2-Cl)][Bta]S-NH2
modifications: staple 1-4, 4-11; not fully specified; printed as Ac-PL3-Asp-Npg-B5-Asp-Asp-Ala-Ala-Phe-Ser-PyrS2-2C1F-BztA-Ser-NH2

Target: full-length beta-Catenin (Uniprot ID P35222) (Homo sapiens (Human)) (UniProt P35222)
Assay: fluorescence polarization competition; 10 nM full-length beta-catenin with 10 nM 5FAM-TCF4(10-53) probe as competitor
Target sequence in this assay (P35222 2-781 limits assumed): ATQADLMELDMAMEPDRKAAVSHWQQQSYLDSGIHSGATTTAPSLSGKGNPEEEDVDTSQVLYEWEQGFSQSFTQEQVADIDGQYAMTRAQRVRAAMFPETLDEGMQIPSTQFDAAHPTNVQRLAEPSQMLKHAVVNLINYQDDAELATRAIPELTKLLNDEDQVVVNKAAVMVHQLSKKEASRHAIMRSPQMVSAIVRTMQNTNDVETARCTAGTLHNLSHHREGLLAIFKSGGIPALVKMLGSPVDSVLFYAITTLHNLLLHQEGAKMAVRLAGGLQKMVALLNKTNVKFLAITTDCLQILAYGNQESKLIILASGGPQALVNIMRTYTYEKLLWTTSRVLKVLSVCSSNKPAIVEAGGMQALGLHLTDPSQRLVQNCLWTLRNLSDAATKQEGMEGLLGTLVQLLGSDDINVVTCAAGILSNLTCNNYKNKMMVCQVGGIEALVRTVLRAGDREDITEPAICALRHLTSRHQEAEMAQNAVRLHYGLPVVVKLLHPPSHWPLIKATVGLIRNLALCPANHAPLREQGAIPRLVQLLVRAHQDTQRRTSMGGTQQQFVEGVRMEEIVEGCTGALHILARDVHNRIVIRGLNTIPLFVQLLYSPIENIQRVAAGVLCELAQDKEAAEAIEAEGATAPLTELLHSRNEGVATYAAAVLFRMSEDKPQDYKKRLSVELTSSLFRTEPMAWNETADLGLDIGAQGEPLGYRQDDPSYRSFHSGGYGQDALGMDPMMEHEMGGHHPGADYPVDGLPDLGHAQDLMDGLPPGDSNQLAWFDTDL

Row | Binder | IC50
1 | B1 | 5 nM
2 | Ac-[αAllylPro]D[tBuAla][B5]DDAAFN[PyrS2][2Nal][Bta]H-NH2 (staple 1-4, 4-11) [I-795] | 176 nM
3 | Ac-[αAllylPro]D[tBuAla][B5]DDAAFL[PyrS2][3Thi][Bta]H-NH2 (staple 1-4, 4-11) [I-802] | 6 nM
4 | Ac-[αAllylPro]D[tBuAla][B5(4)]DDAAF[hSer][PyrS2″][3Thi][Bta]H-NH2 (staple 1-4, 4-11) [I-804] | 5 nM

Target: full-length beta-Catenin (Uniprot ID P35222) (Homo sapiens (Human)) (UniProt P35222)
Assay: fluorescence polarization competition; full-length beta-catenin with 5FAM-labeled TCF4 (10-53) probe as competitor
Target sequence in this assay (P35222 whole entry, the tested form may be a part): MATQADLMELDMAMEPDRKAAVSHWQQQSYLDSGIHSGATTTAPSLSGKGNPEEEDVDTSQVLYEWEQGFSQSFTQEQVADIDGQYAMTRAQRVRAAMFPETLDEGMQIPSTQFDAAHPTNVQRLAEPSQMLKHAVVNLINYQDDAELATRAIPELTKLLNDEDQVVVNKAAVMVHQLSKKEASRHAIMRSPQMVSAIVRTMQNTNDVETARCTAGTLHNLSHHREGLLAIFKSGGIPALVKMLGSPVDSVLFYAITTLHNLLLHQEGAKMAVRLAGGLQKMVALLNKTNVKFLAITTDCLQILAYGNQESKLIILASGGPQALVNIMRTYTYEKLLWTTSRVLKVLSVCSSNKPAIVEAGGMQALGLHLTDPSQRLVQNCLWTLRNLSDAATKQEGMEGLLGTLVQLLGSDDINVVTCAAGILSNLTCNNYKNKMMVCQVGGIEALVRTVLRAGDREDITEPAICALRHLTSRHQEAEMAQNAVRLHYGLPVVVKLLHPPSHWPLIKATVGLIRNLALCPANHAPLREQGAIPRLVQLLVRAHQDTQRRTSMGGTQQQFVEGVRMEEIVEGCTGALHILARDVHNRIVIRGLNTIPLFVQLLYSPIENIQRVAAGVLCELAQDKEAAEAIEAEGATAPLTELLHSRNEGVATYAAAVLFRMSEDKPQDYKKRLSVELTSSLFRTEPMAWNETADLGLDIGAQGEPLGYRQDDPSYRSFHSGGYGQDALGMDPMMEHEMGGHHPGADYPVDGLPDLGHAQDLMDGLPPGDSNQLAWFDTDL

Row | Binder | EC50
5 | Ac-[αAllylPro]D[tBuAla][B5(3)]D[Phe(3-COOH)]AAFS[PyrS2″][3Thi][Bta]S-NH2 (staple 1-4, 4-11; also: later eluting HPLC isomer) [I-985] | 301 nM
6 | Ac-[αAllylPro]D[tBuAla][B5(3)]D[TfeGA]AAFF[PyrS2″]Y[Bta]Q-NH2 (staple 1-4, 4-11) [I-989] | 87 nM
7 | Ac-[αAllylPro]D[tBuAla][B5(3)]D[TfeGA]AAFF[PyrS2″][Phe(2-Cl)][Bta]T-NH2 (staple 1-4, 4-11) [I-991] | 51 nM
8 | Ac-[αAllylPro]D[tBuAla][B5(3)]D[Phe(3-COOH)]AAFF[PyrS2″][3Thi][Bta]S-NH2 (staple 1-4, 4-11; also: later eluting HPLC isomer) [I-983] | 118 nM
9 | Ac-[αAllylPro]D[tBuAla][B5(3)]D[Phe(3-COOH)]AAFS[PyrS2″][3Thi][Bta]S-NH2 (staple 1-4, 4-11; also: earlier eluting HPLC isomer) [I-984] | 179 nM
10 | Ac-[αAllylPro]D[tBuAla][B5(3)]D[TfeGA]AAFF[PyrS2″][Phe(2-Cl)][Bta][hSer]-NH2 (staple 1-4, 4-11) [I-992] | 59 nM
11 | Ac-[αAllylPro]D[tBuAla][B5(3)]D[Phe(3-COOH)]AAFF[PyrS2″][3Thi][Bta]S-NH2 (staple 1-4, 4-11; also: earlier eluting HPLC isomer) [I-982] | 190 nM
12 | Ac-[αAllylPro]D[tBuAla][B5(3)]D[TfeGA]AAFS[S8][Phe(2-Cl)][Bta]Q-NH2 (staple 1-4, 4-11) [I-995] | 55 nM

Target: full-length beta-Catenin (Uniprot ID P35222) (Homo sapiens (Human)) (UniProt P35222)
Assay: fluorescence polarization competition; 10 nM full-length beta-catenin with 10 nM 5FAM-TCF4 (residues 10-53) probe as competitor
Target sequence in this assay (P35222 2-781 limits assumed): as the sequence (P35222 2-781 limits assumed) above

Row | Binder | EC50
13 | Ac-[αAllylPro]D[tBuAla][B5(12)]DNAAFF[PyrS2][3Thi][Bta]Q-NH2 (staple 1-4, 4-11) [I-855] | 22 nM
14 | Ac-[αAllylPro]D[tBuAla][B5(12)]DNAAFL[PyrS2][3Thi][Bta]Q-NH2 (staple 1-4, 4-11) [I-856] | 17 nM
15 | Ac-[αAllylPro]D[tBuAla][B5(4)]DYAAFN[PyrS2][3Thi][Bta]H-NH2 (staple 1-4, 4-11) [I-843] | 154 nM
16 | Ac-[αAllylPro]D[tBuAla][B5(4)]DTAAFN[PyrS2][3Thi][Bta]H-NH2 (staple 1-4, 4-11) [I-845] | 7 nM

Target: full-length beta-Catenin (Uniprot ID P35222) (Homo sapiens (Human)) (UniProt P35222)
Assay: fluorescence polarization competition: peptide titrated against 10 nM full-length beta-catenin + 10 nM 5FAM-TCF4(10-53) probe
Target sequence in this assay (P35222 2-781 limits assumed): as above

Row | Binder | EC50
17 | Ac-[αAllylPro]D[tBuAla][B5]DDAAFN[PyrS2][2Nal][Bta]H-NH2 (staple 1-4, 4-11) [I-795] | 176 nM
18 | Ac-[αAllylPro]D[tBuAla][B5]DDAAFL[PyrS2][3Thi][Bta]H-NH2 (staple 1-4, 4-11) [I-802] | 6 nM
19 | Ac-[αAllylPro]D[tBuAla][B5(4)]DDAAF[hSer][PyrS2″][3Thi][Bta]H-NH2 (staple 1-4, 4-11) [I-804] | 5 nM

Target: full-length beta-Catenin (Uniprot ID P35222) (Homo sapiens (Human)) (UniProt P35222)
Assay: fluorescence polarization competition; displacement of 5FAM-TCF4(10-53) from full-length beta-catenin
Target sequence in this assay (P35222 whole entry, the tested form may be a part): as the sequence (P35222 whole entry, the tested form may be a part) above

Row | Binder | IC50
20 | Ac-[αAllylPro]D[tBuAla][B5(12)]DNAAFF[PyrS2][3Thi][Bta]Q-NH2 (staple 1-4, 4-11) [I-855] | 22 nM
21 | Ac-[αAllylPro]D[tBuAla][B5(12)]DNAAFL[PyrS2][3Thi][Bta]Q-NH2 (staple 1-4, 4-11) [I-856] | 17 nM
22 | Ac-[αAllylPro]D[tBuAla][B5(4)]DYAAFN[PyrS2][3Thi][Bta]H-NH2 (staple 1-4, 4-11) [I-843] | 154 nM
23 | Ac-[αAllylPro]D[tBuAla][B5(4)]DTAAFN[PyrS2][3Thi][Bta]H-NH2 (staple 1-4, 4-11) [I-845] | 7 nM

Target: full-length beta-Catenin (Uniprot ID P35222) (Homo sapiens (Human)) (UniProt P35222)
Assay: fluorescence polarization competition; full-length beta-catenin, competitor probe 5FAM-TCF4(10-53)
Target sequence in this assay (P35222 2-781 limits assumed): as the sequence (P35222 2-781 limits assumed) above

Row | Binder | IC50
24 | Ac-[αAllylPro]D[tBuAla][B5(3)]D[Phe(3-COOH)]AAFS[PyrS2″][3Thi][Bta]S-NH2 (staple 1-4, 4-11; also: later eluting HPLC isomer) [I-985] | 430 nM
25 | Ac-[αAllylPro]D[tBuAla][B5(3)]D[TfeGA]AAFF[PyrS2″]Y[Bta]Q-NH2 (staple 1-4, 4-11) [I-989] | 87 nM
26 | Ac-[αAllylPro]D[tBuAla][B5(3)]D[TfeGA]AAFF[PyrS2″][Phe(2-Cl)][Bta]T-NH2 (staple 1-4, 4-11) [I-991] | 51 nM
27 | Ac-[αAllylPro]D[tBuAla][B5(3)]D[Phe(3-COOH)]AAFF[PyrS2″][3Thi][Bta]S-NH2 (staple 1-4, 4-11; also: later eluting HPLC isomer) [I-983] | 118 nM
28 | Ac-[αAllylPro]D[tBuAla][B5(3)]D[Phe(3-COOH)]AAFS[PyrS2″][3Thi][Bta]S-NH2 (staple 1-4, 4-11; also: earlier eluting HPLC isomer) [I-984] | 179 nM
29 | Ac-[αAllylPro]D[tBuAla][B5(3)]D[TfeGA]AAFF[PyrS2″][Phe(2-Cl)][Bta][hSer]-NH2 (staple 1-4, 4-11) [I-992] | 59 nM
30 | Ac-[αAllylPro]D[tBuAla][B5(3)]D[Phe(3-COOH)]AAFF[PyrS2″][3Thi][Bta]S-NH2 (staple 1-4, 4-11; also: earlier eluting HPLC isomer) [I-982] | 190 nM
31 | Ac-[αAllylPro]D[tBuAla][B5(3)]D[TfeGA]AAFS[S8][Phe(2-Cl)][Bta]Q-NH2 (staple 1-4, 4-11) [I-995] | 55 nM
